Earlier results in US10131637B2, “Anti-PCSK9 compounds and methods for the treatment and/or prevention of cardiovascular diseases” (Shifa Biomedical Corporation, priority 2013, dated 2018).

Target: T1, PCSK9 (Homo sapiens, UniProt Q8NBP7)
T1 construct: slashed LDL levels by more than 60% in clinical trial; host or cells: patients in a clinical trial (endogenous circulating PCSK9)
Details: single injection, clinical trial

reduction of LDL levels: more than 60%
Substance: REGN727: Regeneron/Sanofi monoclonal antibody blocking PCSK9
